Data: patent US20130209454A1 (CALIFORNIA INSTITUTE OF TECHNOLOGY, published 2013)

Experiments:
Test in all cases: cell-based or functional assay
[1] = target: HIV-1 Env of strain SC422661.8 (HIV-1)
[2] = target: HIV-1 strain R2184.04 envelope (gp120) (HIV-1)
[3] = target: HIV-1 strain PVO.4 envelope (gp120) (HIV-1)
[4] = target: HIV-1 strain T255-34 envelope (gp120) (HIV-1)
[5] = target: HIV-1 strain Q461.e2 envelope (gp120) (HIV-1)
[6] = target: HIV-1 strain ZM249M.PL1 envelope (gp120) (HIV-1)
[7] = target: HIV-1 strain 211-9 envelope (gp120) (HIV-1)
[8] = target: HIV-1 strain 0815.v3.c3 envelope (gp120) (HIV-1)
[9] = target: HIV-1 strain 231966.c02 envelope (gp120) (HIV-1)
[10] = target: HIV-1 strain Q842.d12 envelope (gp120) (HIV-1)
[11] = target: HIV-1 strain Ce0682_E4 envelope (gp120) (HIV-1)
[12] = target: HIV-1 strain Du172.17 envelope (gp120) (HIV-1)
[13] = target: HIV-1 strain P0402_c2_11 envelope (gp120) (HIV-1)
[14] = target: HIV-1 strain 1056_10_TA11_1826 envelope (gp120) (HIV-1)
[15] = target: HIV-1 strain CNE21 envelope (gp120) (HIV-1)
[16] = target: HIV-1 strain X1254_c3 envelope (gp120) (HIV-1)
[17] = target: HIV-1 strain 89-F1_2_25 envelope (gp120) (HIV-1)
[18] = target: HIV-1 strain CNE53 envelope (gp120) (HIV-1)
[19] = target: HIV-1 strain P1981_C5_3 envelope (gp120) (HIV-1)
[20] = target: HIV-1 strain 3415.v1.c1 envelope (gp120) (HIV-1)
[21] = target: HIV-1 strain CAAN5342.A2 envelope (gp120) (HIV-1)
[22] = target: HIV-1 strain ZM197M.PB7 envelope (gp120) (HIV-1)
[23] = target: HIV-1 strain T250-4 envelope (gp120) (HIV-1)
[24] = target: HIV-1 strain 6811.v7.c18 envelope (gp120) (HIV-1)
[25] = target: HIV-1 strain 3103.v3.c10 envelope (gp120) (HIV-1)
[26] = target: HIV-1 strain 928-28 envelope (gp120) (HIV-1)
[27] = target: HIV-1 strain Ce2060_G9 envelope (gp120) (HIV-1)
[28] = target: HIV-1 strain CAP45.2.00.G3 envelope (gp120) (HIV-1)
[29] = target: HIV-1 strain Ce1176_A3 envelope (gp120) (HIV-1)
[30] = target: HIV-1 strain C2101.c01 envelope (gp120) (HIV-1)
[31] = target: HIV-1 strain CNE30 envelope (gp120) (HIV-1)
[32] = target: HIV-1 strain 6480.v4.c25 envelope (gp120) (HIV-1)
[33] = target: HIV-1 strain Du156.12 envelope (gp120) (HIV-1)
[34] = target: HIV-1 strain R1166.c01 envelope (gp120) (HIV-1)
[35] = target: HIV-1 strain Ce0393_C3 envelope (gp120) (HIV-1)
[36] = target: HIV-1 strain 62357_14_D3_4589 envelope (gp120) (HIV-1)
[37] = target: HIV-1 strain TRJO4551.58 envelope (gp120) (HIV-1)
[38] = target: HIV-1 strain X2131_C1_B5 envelope (gp120) (HIV-1)
[39] = target: HIV-1 strain 3817.v2.c59 envelope (gp120) (HIV-1)
[40] = target: HIV-1 strain 1054_07_TC4_1499 envelope (gp120) (HIV-1)
[41] = target: HIV-1 strain 6545.v4.c1 envelope (gp120) (HIV-1)
[42] = target: HIV-1 strain T257-31 envelope (gp120) (HIV-1)

B1: NIH45-46 IgG (antibody, V domains shown)
VH: QVRLSQSGGQMKKPGESMRLSCRASGYEFLNCPINWIRLAPGRRPEWMGWLKPRGGAVNYARKFQGRVTMTRDVYSDTAFLELRSLTSDDTAVYFCTRGKYCTARDYYNWDFEHWGRGAPVTVSS
VL: EIVLTQSPATLSLSPGETAIISCRTSQSGSLAWYQQRPGQAPRLVIYSGSTRAAGIPDRFSGSRWGADYNLSISNLESGDFGVYYCQQYEFFGQGTKVQVDI
neutralization IC50 [1]: 0.06 µg/mL

B2: NIH45-46 IgG (antibody, V domains shown)
VH: B1 VH
VL: B1 VL
neutralization IC80 [2]: 0.127 µg/mL
neutralization IC80 [3]: 0.41 µg/mL
neutralization IC80 [4]: 3.44 µg/mL
neutralization IC80 [5]: 0.291 µg/mL
neutralization IC80 [6]: 0.053 µg/mL
neutralization IC80 [7]: > 50 µg/mL
neutralization IC80 [8]: 0.052 µg/mL
neutralization IC80 [9]: 9.64 µg/mL
neutralization IC80 [10]: 0.073 µg/mL
neutralization IC80 [11]: 0.155 µg/mL
neutralization IC80 [12]: > 50 µg/mL
neutralization IC80 [13]: 0.214 µg/mL
neutralization IC80 [14]: 0.447 µg/mL
neutralization IC80 [15]: 38.1 µg/mL
neutralization IC80 [16]: 0.107 µg/mL
neutralization IC80 [17]: > 50 µg/mL
neutralization IC80 [18]: 0.039 µg/mL
neutralization IC80 [19]: 0.24 µg/mL
neutralization IC80 [20]: 0.086 µg/mL
neutralization IC80 [21]: 0.4 µg/mL
neutralization IC80 [22]: 0.55 µg/mL
neutralization IC80 [23]: > 50 µg/mL
neutralization IC80 [24]: 0.113 µg/mL
neutralization IC80 [25]: 6.15 µg/mL
neutralization IC80 [26]: 0.64 µg/mL
neutralization IC80 [27]: 0.29 µg/mL
neutralization IC80 [28]: > 50 µg/mL
neutralization IC80 [29]: 3.17 µg/mL
neutralization IC80 [30]: 31.4 µg/mL
neutralization IC80 [31]: 1.07 µg/mL
neutralization IC80 [32]: 0.1 µg/mL
neutralization IC80 [33]: 0.054 µg/mL
neutralization IC80 [34]: 1.21 µg/mL
neutralization IC80 [35]: 0.93 µg/mL
neutralization IC80 [36]: 0.19 µg/mL
neutralization IC80 [37]: 0.13 µg/mL
neutralization IC80 [38]: 0.88 µg/mL
neutralization IC80 [39]: > 50 µg/mL
neutralization IC80 [40]: 0.404 µg/mL
neutralization IC80 [41]: > 50 µg/mL
neutralization IC80 [42]: 1.38 µg/mL
